According to patent US20230140976A1 (OREGON HEALTH AND SCIENCE UNIVERSITY, published 2023):

Tests used:
[1] = molecular target: T1, dog dystroglycan (DG) (MDCK cells) (dog, UniProt Q9TSZ6 28-892); test: not described; MDCK cells
T1 construct: whole, on cells; also called dog DG
T1 sequence (looked up): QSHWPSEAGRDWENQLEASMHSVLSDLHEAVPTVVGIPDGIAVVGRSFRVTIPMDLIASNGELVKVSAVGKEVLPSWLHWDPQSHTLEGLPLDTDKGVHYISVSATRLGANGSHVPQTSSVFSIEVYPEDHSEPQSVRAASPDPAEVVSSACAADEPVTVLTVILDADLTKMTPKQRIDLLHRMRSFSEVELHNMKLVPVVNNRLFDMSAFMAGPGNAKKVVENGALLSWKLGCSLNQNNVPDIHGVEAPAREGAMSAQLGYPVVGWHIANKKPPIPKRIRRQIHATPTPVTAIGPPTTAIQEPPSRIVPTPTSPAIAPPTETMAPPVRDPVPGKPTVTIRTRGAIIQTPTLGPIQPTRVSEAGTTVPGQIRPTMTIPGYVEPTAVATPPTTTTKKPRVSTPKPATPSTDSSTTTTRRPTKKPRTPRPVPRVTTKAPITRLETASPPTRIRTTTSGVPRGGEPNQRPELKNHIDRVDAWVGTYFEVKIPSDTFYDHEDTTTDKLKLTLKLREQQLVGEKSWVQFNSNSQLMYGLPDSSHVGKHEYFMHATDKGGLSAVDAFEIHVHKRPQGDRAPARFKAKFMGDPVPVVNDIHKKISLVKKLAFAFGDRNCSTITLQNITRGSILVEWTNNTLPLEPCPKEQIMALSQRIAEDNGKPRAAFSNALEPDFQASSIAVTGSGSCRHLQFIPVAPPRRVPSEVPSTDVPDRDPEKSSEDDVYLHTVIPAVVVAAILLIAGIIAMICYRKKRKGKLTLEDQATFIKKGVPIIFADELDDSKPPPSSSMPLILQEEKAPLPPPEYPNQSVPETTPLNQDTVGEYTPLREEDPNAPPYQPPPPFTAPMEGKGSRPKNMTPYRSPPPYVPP

[2] = molecular target: T2, human dystroglycan (DG) heterodimer of α-DG and β-DG (human, UniProt Q14118 30-653; Q14118 654-895, variable O- and N-glycosylation of α-DG (sites listed in paragraph 55)); test: live-cell immunofluorescence on co-cultured MEpG cells with and without human DG (FIG. 3)
T2 construct: In the immunoprecipitations it came from lysates of surface-biotinylated cells; also called DAG1; Dystrophin-Associated Glycoprotein 1
T2 sequence 1: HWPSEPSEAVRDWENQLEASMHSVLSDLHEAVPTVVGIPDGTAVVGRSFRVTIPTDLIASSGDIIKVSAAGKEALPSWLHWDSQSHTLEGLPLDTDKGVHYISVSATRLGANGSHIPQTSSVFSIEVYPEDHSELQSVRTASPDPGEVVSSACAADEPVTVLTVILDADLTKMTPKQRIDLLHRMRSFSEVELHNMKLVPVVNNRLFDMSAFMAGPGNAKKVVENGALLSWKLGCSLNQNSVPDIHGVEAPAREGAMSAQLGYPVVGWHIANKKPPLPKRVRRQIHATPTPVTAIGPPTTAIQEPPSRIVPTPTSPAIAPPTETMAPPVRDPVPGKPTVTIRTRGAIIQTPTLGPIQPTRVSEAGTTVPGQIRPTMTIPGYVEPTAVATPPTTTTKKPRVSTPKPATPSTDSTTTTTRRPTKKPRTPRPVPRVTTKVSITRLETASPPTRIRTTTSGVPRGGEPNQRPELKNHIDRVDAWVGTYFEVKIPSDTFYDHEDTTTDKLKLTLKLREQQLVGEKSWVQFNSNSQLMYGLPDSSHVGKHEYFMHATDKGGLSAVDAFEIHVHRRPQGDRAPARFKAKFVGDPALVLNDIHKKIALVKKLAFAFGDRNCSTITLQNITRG
T2 sequence 2: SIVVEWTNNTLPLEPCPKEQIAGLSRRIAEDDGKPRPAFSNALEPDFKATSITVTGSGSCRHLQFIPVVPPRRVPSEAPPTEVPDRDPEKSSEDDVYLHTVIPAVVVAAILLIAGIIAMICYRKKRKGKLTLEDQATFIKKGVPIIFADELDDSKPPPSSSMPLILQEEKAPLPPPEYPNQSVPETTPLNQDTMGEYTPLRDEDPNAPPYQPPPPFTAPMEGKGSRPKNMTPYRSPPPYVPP
Procedure: Example 2. Screening for antibodies of interest by live cell binding and internalization. Antibody activity was measured as binding to the surface of living cells expressing the human DG protein (“positive” cells) but not to negative controls (cells derived from an engineered conditional DG knockout mouse lacking human DG expression). The positive population was the same cell line used for immunization, MEpG cells expressing the human DG protein. The negative population was the murine MEpG line expressing green fluorescent protein (GFP) and not the human DG protein, created as previously described in Oppizzi et al., Traffic, 9(12): 2063-2072, 2008. The positive and negative populations were co-cultured in wells of Ibidi 96-well micro-plates (Ibidi, catalog #89626) and distinguishable by GFP expression. Hybridoma supernatants to be tested were diluted 1:1 with plain DMEM:F12 cell culture medium (Gibco) and added to cell-containing wells of the 96-well Ibidi plates. Each well was incubated for 60 minutes at 37° C. with the hybridoma supernatants to be tested, washed with DMEM:F12 medium, and incubated 30 minutes at 37° C. with an anti-mouse secondary antibody conjugated to the Alexa-568 fluorescent dye (Jackson Immunochemicals) diluted 1:1000 in DMEM:F12 medium. […]

[3] = molecular target: T2, human dystroglycan (DG) heterodimer of …; test: live-cell immunofluorescence on UMUC3, UMUC5, UMUC9 and UMUC10

B1: monoclonal antibody from hybridoma DG1A11 (ATCC Patent Deposit No. PTA-126595) (antibody, V domains shown)
VH: DVQLQESGPGLVKPSQSLSLTCTVTDYAITSDYAWNWIRQFPGNKLEWMGYISYSGSTSYSSSLKSRISITRDTSKNQFFLQLNSVTPEDTATYYCARAAPFTTLTDFFDYWGQGTTLTVSS
VL: DIVMTQSHKFMSTSVGDRVTITCKASQDVTTAVAWYQQKPGQSPKLLIYWASSRHTGVPDRFTGSGSGTDYTLTISSVQAEDLALYYCQQHYSTPYTFGGGTKLEIKR
notes: Mouse monoclonal antibody (Balb/c hybridoma); Tested as hybridoma supernatant or purified antibody; also called Antibody A; lane A
[1]
  binding result: no binding
[2]
  binding result: binds

B2: monoclonal antibody from hybridoma DG4H4 (ATCC Patent Deposit No. PTA-126594) (antibody, V domains shown)
VH: QVTLKESGPGILKPSQTLSLTCSFSGFSLSTSGMGVGWIRQPSGKGLEWLAHIWWDDDKYYNPSLKSQLTISKDTSRNQVFLKITSVDTADTATYYCARRAYYYGSSYPMDYWGQGTSVTVSS
VL: DIVLTQSPTSLAVSLGQRATFSCKASQSVDYDGDSYMNWYQQKPGQPPKLLIYAASNLDSGIPARFSGSGSGTDFTLNIHPVEEEDAATYYCQQSNEDPLTFGAGTKLELKR
notes: Mouse monoclonal antibody (Balb/c hybridoma); also called lane F
[1]
  binding result: no binding
[3]
  binding result: binds
